Experimental data taken from publication PMC11652679.

Molecular target: Mayaro virus E1-E2 heterodimer on the VLP (Mayaro virus) (UniProt Q8QZ72)
Assay: cryo-EM structure; single-particle averaging with icosahedral (I1) reconstruction of purified MAYV VLPs, ~1-2 mg/mL in STE buffer, vitrified at 4 °C; final resolution 4.5 Å

Substance: Mayaro virus E1-E2 heterodimer on the VLP (from UniProt Q8QZ72 807-1242) (complex)
- stoichiometry N: 3
